Measurements published in patent publication US20240247043A1 (WUHAN YZY BIOPHARMA, published 2024).
Residue numbers refer to the chain shown, from its start. Names may count otherwise.

B1: human FGL1-His antigen (ACRO, FG1-H52Hy) (ligand, UniProt Q08830 23-312, looked up)
chain: LEDCAQEQMRLRAQVRLLETRVKQQQVKIKQLLQENEVQFLDKGDENTVIDLGSKRQYADCSEIFNDGYKLSGFYKIKPLQSPAEFSVYCDMSDGGGWTVIQRRSDGSENFNRGWKDYENGFGNFVQKHGEYWLGNKNLHFLTTQEDYTLKIDLADFEKNSRYAQYKNFKVGDEKNFYELNIGEYSGTAGDSLAGNFHPEVQWWASHQRMKFSTWDRDHDNYEGNCAEEDQSGWWFNRCHSANLNGVYYSGPYTAKTDNGIVWYTWHGWWYSLKSVVMKIRPNDFIPNVI
notes: Bought His-tagged protein; also called hFGL1; hFGL1 antigen
B2: LAG-3 D1-D2-LZ wild type W1161-LZ (other)
chain 1: LQPGAEVPVVWAQEGAPAQLPCSPTIPLQDLSLLRRAGVTWQHQPDSGPPAAAPGHPLAPGPHPAAPSSWGPRPRRYTVLSVGPGGLRSGRLPLQPRVQLDERGRQRGDFSLWLRPARRADAGEYRAAVHLRDRALSCRLRLRLGQASMTASPPGSLRASDWVILNCSFSRPDRPASVHWFRNRGQGRVPVRESPHHHLAESFLFLPQVSPMDSGPWGCILTYRDGFNVSIMYNLTVLGGGGGSGGGGSEPKSSDKTHTCPPCPRIARLEEKVKTLKAQNSELASTANMLREQVAQLKQKVMNHHHHHH
chain 2: LQPGAEVPVVWAQEGAPAQLPCSPTIPLQDLSLLRRAGVTWQHQPDSGPPAAAPGHPLAPGPHPAAPSSWGPRPRRYTVLSVGPGGLRSGRLPLQPRVQLDERGRQRGDFSLWLRPARRADAGEYRAAVHLRDRALSCRLRLRLGQASMTASPPGSLRASDWVILNCSFSRPDRPASVHWFRNRGQGRVPVRESPHHHLAESFLFLPQVSPMDSGPWGCILTYRDGFNVSIMYNLTVLGGGGGSGGGGSEPKSSDKTHTCPPCPLTDTLQAETDQLEDEKSALQTEIANLLKEKEKLEFILAAHHHHHH
notes: Leucine zipper dimer of D1-D2-Linker2-c-JUN-His and D1-D2-Linker2-c-FOS-His
B3: LAG-3 D1-D2-LZ mutant WS451-LZ (E201G) (other)
chain 1: B2 chain 1 with E201G
chain 2: B2 chain 2 with E201G
notes: Leucine zipper dimer; D2 entry already carries E201G; copies: 1 + 1
B4: LAG-3 D1-D2-LZ mutant WS331-LZ (P195A) (other)
chain 1: B2 chain 1 with P195A
chain 2: B2 chain 2 with P195A
notes: Leucine zipper dimer; D2 entry already carries P195A; copies: 1 + 1
B5: LAG-3 D1-D2-LZ mutant WS323-LZ (N183A) (other)
chain 1: B2 chain 1 with N183A
chain 2: B2 chain 2 with N183A
notes: Leucine zipper dimer; D2 entry already carries N183A; copies: 1 + 1
B6: LAG-3 D1-D2-LZ mutant WS447-LZ (E201D) (other)
chain 1: B2 chain 1 with E201D
chain 2: B2 chain 2 with E201D
notes: Leucine zipper dimer; D2 entry already carries E201D; copies: 1 + 1

Legend:
[1] = target: T1, LAG-3 D1-D2-D3-Fc mutant E201D (UniProt P18627 23-352); experiment: procedures of Examples 2-4 repeated; method not told here
T1 construct: domain: D1-D2-D3; also called LAG-3 D1-D2-D3-Linker-Fc E201D

[2] = target: T2, LAG-3 D1-D2-D3-Fc mutant E201G (UniProt P18627 23-352); experiment: as above
T2 construct: domain: D1-D2-D3; also called LAG-3 D1-D2-D3-Linker-Fc E201G

[3] = target: T3, LAG-3 D1-D2-D3-Fc mutant P207I (UniProt P18627 23-352); experiment: as above
T3 construct: domain: D1-D2-D3; also called LAG-3 D1-D2-D3-Linker-Fc P207I

[4] = target: T4, LAG-3 D1-D2-D3-Fc mutant M212A (UniProt P18627 23-352); experiment: as above
T4 construct: domain: D1-D2-D3; also called LAG-3 D1-D2-D3-Linker-Fc M212A

[5] = target: T5, Y103-4A (LAG3 D1-D2-D3-D4-Fab, anti-PD-L1 Fab) (human); experiment: Biacore SPR, antigen amine-coupled on CM5 chip, 1:1 fit
T5 construct: Dimer of LAG-3-Linker3-VL-CL and LAG-3-Linker3-VH-CH1; the Fab is specific for PD-L1

[6] = target: T6, Y103-7A (LAG3 D1-D2-Fab, anti-PD-L1 Fab) (human); experiment: as above
T6 construct: Dimer of LAG-3-Linker3-VL-CL and LAG-3-Linker3-VH-CH1; the Fab is specific for PD-L1

[7] = target: B1; experiment: ELISA, same method as in Example 3: construct coated, serially diluted human FGL1 added, OD450

Binder: B1
- binding result [1]: binds
- binding result [2]: binds
- binding result [3]: binds
- binding result [4]: binds
- Kd [5]: 0.929 nM
- Kd [6]: 2.46 nM

Binder: B2
- binding result [7]: binds

Binder: B3
- binding result [7]: binds

Binder: B4
- binding result [7]: binds

Binder: B5
- binding result [7]: binds

Binder: B6
- binding result [7]: binds
